The values that follow come from the Immune Epitope Database (IEDB).

Test in all cases: IEDB peptide-MHC binding, purified MHC/competitive/radioactivity; filed as Kd, often an IC50 or EC50 that approximates it; ≥ and ≤ were set here for values at or beyond the usual limits of such assays
The target in assay [1] is HLA-A*03:01.
For assay [2], the target named is HLA-A*11:01.
For assay [3], the target named is HLA-A*31:01.
Assay [4] addresses HLA-A*33:01.
Assay [5] deals with HLA-A*68:01.
For assay [6], the target named is HLA-A*02:03.
Assay [7] has as its target HLA-A*02:06.
Where [8] appears, read: source organism: Vaccinia virus WR.
The mark [9] stands for this setting: source organism: SARS coronavirus Tor2.
Setting [10] is: source organism: Dengue virus 4 Philippines/H241/1956.
Setting [11] is: source organism: Dengue virus 2 Jamaica/1409/1983.
Setting [12] is: source organism: Dengue virus 1 Brazil/97-11/1997.
Setting [13] is: source organism: Dengue virus 2 16681-PDK53.
Where [14] appears, read: source organism: Dengue virus 3 Martinique/1243/1999.
Where [15] appears, read: source organism: Dengue virus 3 Sri Lanka/1266/2000.
[16] abbreviates: source organism: Lymphocytic choriomeningitis virus (strain Armstrong).
Where [17] appears, read: source organism: Dengue virus 2 Peru/IQT2913/1996.
Setting [18] is: source organism: Mammarenavirus guanaritoense.
Where [19] appears, read: source organism: Dengue virus 1 Singapore/S275/1990.
Where [20] appears, read: source organism: Dengue virus 1 Nauru/West Pac/1974.

On to ILFMEMFFDY, for which the Kd – broadly, the equilibrium constant for the complex coming apart – is 31.6 nM in assay [1] (setting [8]); 121 nM in assay [2] (setting [8]); 5470 nM in assay [3] (setting [8]); at least 64300 nM in assay [4] (setting [8]); 845 nM in assay [5] (setting [8]).
On to SAGFSLWIY, for which the Kd in assay [1] (setting [9]) came out at 572 nM; in assay [2] (setting [9]), 116 nM; in assay [3] (setting [9]), 393 nM; in assay [4] (setting [9]), 17300 nM; in assay [5] (setting [9]), 4040 nM.
Take ALDEKWNEFK: the Kd is 192 nM in assay [1] (setting [8]); 98.2 nM in assay [2] (setting [8]); 7280 nM in assay [3] (setting [8]); at least 70000 nM in assay [4] (setting [8]); 9850 nM in assay [5] (setting [8]).
Regarding MGANFRAGR, in assay [5] (setting [10]), the Kd turned out to be 46.7 nM.
Turning to ILKINSVKYY, the Kd was 17200 nM in assay [1] (setting [8]); 13500 nM in assay [2] (setting [8]); 4910 nM in assay [3] (setting [8]); 11200 nM in assay [4] (setting [8]); 1420 nM in assay [5] (setting [8]).
Consider YALINLVQY, for which the Kd was at least 78000 nM in assay [1] (setting [8]); at least 77900 nM in assay [2] (setting [8]); at least 20500 nM in assay [3] (setting [8]); at least 77700 nM in assay [4] (setting [8]); at least 51800 nM in assay [5] (setting [8]).
As to TTFVTPMLR, the Kd in assay [1] (setting [11]) was found to be 102 nM; in assay [2] (setting [11]), 79.2 nM; in assay [3] (setting [11]), 16.5 nM; in assay [4] (setting [11]), 5.67 nM; in assay [5] (setting [11]), 3.77 nM.
TLCAIILGGL: the Kd in assay [6] (setting [10]) turned out to be 3.7 nM.
For GIGTFLHYK, the Kd in assay [1] (setting [8]) is 7.8 nM; in assay [2] (setting [8]), 0.585 nM; in assay [3] (setting [8]), 65.7 nM; in assay [4] (setting [8]), 3780 nM; in assay [5] (setting [8]), 24 nM.
Regarding VTNPAVLRK, the figures for the Kd in assay [1] (setting [12]) and in assay [2] (setting [12]) were 4.28 nM and 16.5 nM, respectively.
As to LQMENKAWL, the Kd in assay [7] (setting [13]) came out at 22.8 nM.
As to AVVLMGLDK, in assay [2] (setting [14]), the Kd worked out at 2470 nM.
For IFTLTVAWR, the Kd in assay [3] (setting [15]) was determined as 163 nM; in assay [4] (setting [15]) it was 5.89 nM.
As for MTLMKGASKR, the Kd in assay [3] (setting [10]) was determined as 78.5 nM; in assay [4] (setting [10]), 68.2 nM; in assay [5] (setting [10]), 94.5 nM.
Regarding AVSTANIFR, the Kd in assay [2] (setting [10]) worked out at 90.7 nM; in assay [5] (setting [10]) it was 29.6 nM.
As to GICSCGAFK, the Kd in assay [2] (setting [16]) stood at 54.6 nM.
For DVPSPAAAQK, in assay [5] (setting [10]), the Kd was determined as 192 nM.
Turning to IMKDGRKLV, the Kd in assay [6] (setting [14]) worked out at 558 nM.
Take ATTFITPMLR: the values for the Kd in assay [2] (setting [17]), in assay [3] (setting [17]) and in assay [5] (setting [17]) were 14 nM, 48.6 nM and 15.3 nM, respectively.
As to IVSSVNMVSR, the Kd in assay [3] (setting [15]) turned out to be 82.7 nM; in assay [4] (setting [15]), 346 nM; in assay [5] (setting [15]), 9.22 nM.
On to SLAAIANQA, for which the Kd in assay [6] (setting [14]) is 55 nM.
Turning to LLKTALLIV, in assay [6] (setting [14]), the Kd worked out at 10.6 nM.
Consider CTGSFKLEK, for which the Kd in assay [2] (setting [12]) was 39.8 nM.
As for TLWEGSPGK, in assay [1] (setting [12]), the Kd stood at 328 nM.
As to QMWQLMYFHR, the Kd in assay [3] (setting [12]) is at least 39900 nM; in assay [4] (setting [12]) it was 0.396 nM.
Take SLVMLLVHYA: the Kd in assay [6] (setting [10]) was 640 nM; in assay [7] (setting [10]), 423 nM.
Turning to FTTNIWLKLK, the Kd in assay [5] (setting [13]) came out at 12.5 nM.
With TLMSIVSSLH, in assay [4] (setting [16]), the Kd was at least 70000 nM.
With YLWEVKKQR, the Kd in assay [4] (setting [11]) is 65.4 nM.
Turning to IMAYVNQAHH, the Kd in assay [1] (setting [18]) was 4010 nM; in assay [3] (setting [18]), 1120 nM; in assay [4] (setting [18]), 3920 nM; in assay [5] (setting [18]), 97 nM.
Consider LLILCTSQI, for which the Kd in assay [6] (setting [12]) is 8.71 nM.
In the case of MSAAIKDSK, the Kd in assay [2] (setting [12]) was found to be 1120 nM; in assay [5] (setting [12]) it was 76.6 nM.
As to GLAMGIMMLK, the Kd in assay [1] (setting [12]) turned out to be 12.1 nM; in assay [2] (setting [12]), 156 nM.
In the case of VQTAPGTFK, the Kd in assay [2] (setting [19]) was 129 nM.
Regarding YVASYLLAAL, the Kd in assay [6] (source organism: Homo sapiens) was 1.04 nM.
Turning to IMQRGLFGK, the values for the Kd in assay [1] (setting [10]) and in assay [2] (setting [10]) were 85.6 nM and 327 nM, respectively.
Consider TTIITPMMR, for which the Kd in assay [2] (setting [20]) was determined as 215 nM; in assay [4] (setting [20]), 52.9 nM; in assay [5] (setting [20]), 4.15 nM.
Consider LALSLTFIR, for which the Kd is 97.1 nM in assay [3] (setting [10]) and 6.39 nM in assay [4] (setting [10]).
Take ATTIITPMMR: the Kd in assay [2] (setting [20]) was 162 nM; in assay [3] (setting [20]) it was at least 70000 nM; in assay [5] (setting [20]), 386 nM.
As to RSCSFKVGHH, the Kd in assay [1] (setting [18]) is 11400 nM; in assay [3] (setting [18]), 477 nM; in assay [4] (setting [18]), at least 70000 nM; in assay [5] (setting [18]) it was at least 36600 nM.
ATLTEGVYR: the Kd in assay [3] (setting [10]) worked out at 7.26 nM.
On to HATMLDVDLR, for which the dissociation constant Kd in assay [5] (setting [19]) stood at 90.6 nM.
On to LQMEDKAWL, for which, in assay [7] (setting [11]), the Kd is 32.2 nM.
Consider ILKEPVHGV, for which the Kd in assay [6] (source organism: Human immunodeficiency virus type 1 BH10) stood at 6.3 nM.
Take ELGKKKTPR: the Kd in assay [4] (setting [11]) was 116 nM.
Turning to LTIMDLHPGA, the Kd in assay [7] (setting [11]) was determined as 105 nM.
As for ETTKHAVSR, the Kd in assay [4] (setting [12]) is 10.6 nM; in assay [5] (setting [12]) it was 10.3 nM.
As for KQLGQIMLL, in assay [7] (setting [12]), the Kd amounted to 5.76 nM.
